Laboratory results: patent US20240327522A1 (Genentech, published 2024)
Values belong to the molecule of their own block, whether it stands above or below them.

Experiments:
[1] = molecular target: human αvβ8 endogenously expressed on cells (human); experiment: cell-based or functional assay
[2] = molecular target: recombinant human αvβ8 protein (PARS-17102) (human); experiment: SPR, Biacore T200, anti-murine Fc capture (murine Fc format), human αvβ8 analyte 0-50 nM, 37 C, 1:1 model (FIG. 10)
[3] = molecular target: human αvβ8 endogenously expressed on cells (human)
[4] = molecular target: recombinant human αvβ8 protein (PARS-17102) (human); experiment: SPR, Biacore kinetic screen at 37 °C, 1:1 binding fit; antibody as ligand, hu.aVb8-17102 as sample; in the presence of divalent cations according to
[5] = molecular target: recombinant human αvβ8 protein (PARS-17102) (human); experiment: SPR, Biacore T200, anti-murine Fc capture (murine Fc format), human αvβ8 analyte 0-50 nM, 37 C, 1:1 model (FIG. 10); below the instrument's detection limit
[6] = molecular target: T1, recombinant human αvβ8 protein (PARS-17102) (human); experiment: SPR, Biacore T200, antibody captured on protein A chip, aVb8 as analyte, 37 C, 1:1 Langmuir model
T1 construct: also called hu.aVb8.17102; not shown: C-terminal acid/basic coils and any purification tags
T1 alpha: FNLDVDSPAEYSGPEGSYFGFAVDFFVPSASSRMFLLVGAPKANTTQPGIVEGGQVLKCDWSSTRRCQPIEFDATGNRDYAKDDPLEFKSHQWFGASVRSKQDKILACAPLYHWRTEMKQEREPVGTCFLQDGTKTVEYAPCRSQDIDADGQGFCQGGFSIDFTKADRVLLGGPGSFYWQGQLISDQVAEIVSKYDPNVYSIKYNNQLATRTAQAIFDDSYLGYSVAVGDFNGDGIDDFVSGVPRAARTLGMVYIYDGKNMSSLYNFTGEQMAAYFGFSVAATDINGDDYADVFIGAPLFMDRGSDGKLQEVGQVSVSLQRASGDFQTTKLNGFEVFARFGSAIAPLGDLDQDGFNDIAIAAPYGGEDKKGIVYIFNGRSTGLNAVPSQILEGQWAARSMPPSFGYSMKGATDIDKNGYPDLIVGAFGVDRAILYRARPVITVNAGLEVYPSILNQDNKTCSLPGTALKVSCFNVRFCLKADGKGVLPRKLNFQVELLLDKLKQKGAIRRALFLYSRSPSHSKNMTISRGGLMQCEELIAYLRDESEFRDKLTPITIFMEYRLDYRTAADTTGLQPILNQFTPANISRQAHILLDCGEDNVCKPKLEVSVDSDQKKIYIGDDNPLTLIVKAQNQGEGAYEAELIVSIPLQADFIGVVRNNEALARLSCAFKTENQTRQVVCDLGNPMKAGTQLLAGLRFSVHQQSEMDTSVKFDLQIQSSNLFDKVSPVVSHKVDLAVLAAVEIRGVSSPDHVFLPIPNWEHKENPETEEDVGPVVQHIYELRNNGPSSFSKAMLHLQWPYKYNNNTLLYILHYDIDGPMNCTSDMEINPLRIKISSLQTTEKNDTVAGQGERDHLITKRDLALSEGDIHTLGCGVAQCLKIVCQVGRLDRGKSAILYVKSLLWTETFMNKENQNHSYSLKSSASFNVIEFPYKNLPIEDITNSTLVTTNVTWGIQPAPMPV
T1 beta: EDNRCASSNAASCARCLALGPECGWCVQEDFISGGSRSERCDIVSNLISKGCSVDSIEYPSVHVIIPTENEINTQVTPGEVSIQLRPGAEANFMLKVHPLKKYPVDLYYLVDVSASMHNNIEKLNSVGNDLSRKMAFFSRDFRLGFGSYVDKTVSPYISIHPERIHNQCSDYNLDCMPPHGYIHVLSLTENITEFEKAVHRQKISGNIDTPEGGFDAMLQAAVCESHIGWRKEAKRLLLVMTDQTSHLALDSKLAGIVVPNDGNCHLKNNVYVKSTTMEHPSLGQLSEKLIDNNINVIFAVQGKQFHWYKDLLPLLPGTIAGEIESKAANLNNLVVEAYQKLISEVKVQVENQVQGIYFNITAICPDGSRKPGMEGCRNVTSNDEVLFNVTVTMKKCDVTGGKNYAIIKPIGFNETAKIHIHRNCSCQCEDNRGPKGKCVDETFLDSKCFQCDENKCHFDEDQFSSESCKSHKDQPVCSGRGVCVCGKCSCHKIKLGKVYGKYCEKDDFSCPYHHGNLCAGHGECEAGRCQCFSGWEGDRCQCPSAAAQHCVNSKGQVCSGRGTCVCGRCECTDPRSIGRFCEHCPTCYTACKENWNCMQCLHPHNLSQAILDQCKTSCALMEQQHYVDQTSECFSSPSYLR
Experimental: (§1) The binding affinity of the antibodies was determined by BIAcore™ T200 machine. For kinetics measurements, antibodies were captured on research grade protein A chip (Cytiva, USA) to achieve approximately 60 RU. Ten-fold serial dilutions of human, murine and cyno aVb8 were injected in the same running buffer as above at 37° C. with a flow rate of 100 μL/min. Association rates (ka) and dissociation rates (kd) were calculated using a 1:1 Langmuir binding model (BIAcore™ T200 Evaluation Software version 2.0). The equilibrium dissociation constant (KD) was calculated as the ratio kd/ka. […]

[7] = molecular target: T2, recombinant mouse αvβ8 protein (PARS-17103) (murine, UniProt P43406 31-988; Q0VBD0 43-681, limits assumed); experiment: as above
T2 construct: Made in house; also called mu.aVb8.17103
T2 sequence (P43406 31-988 limits assumed, chain 1 of 2): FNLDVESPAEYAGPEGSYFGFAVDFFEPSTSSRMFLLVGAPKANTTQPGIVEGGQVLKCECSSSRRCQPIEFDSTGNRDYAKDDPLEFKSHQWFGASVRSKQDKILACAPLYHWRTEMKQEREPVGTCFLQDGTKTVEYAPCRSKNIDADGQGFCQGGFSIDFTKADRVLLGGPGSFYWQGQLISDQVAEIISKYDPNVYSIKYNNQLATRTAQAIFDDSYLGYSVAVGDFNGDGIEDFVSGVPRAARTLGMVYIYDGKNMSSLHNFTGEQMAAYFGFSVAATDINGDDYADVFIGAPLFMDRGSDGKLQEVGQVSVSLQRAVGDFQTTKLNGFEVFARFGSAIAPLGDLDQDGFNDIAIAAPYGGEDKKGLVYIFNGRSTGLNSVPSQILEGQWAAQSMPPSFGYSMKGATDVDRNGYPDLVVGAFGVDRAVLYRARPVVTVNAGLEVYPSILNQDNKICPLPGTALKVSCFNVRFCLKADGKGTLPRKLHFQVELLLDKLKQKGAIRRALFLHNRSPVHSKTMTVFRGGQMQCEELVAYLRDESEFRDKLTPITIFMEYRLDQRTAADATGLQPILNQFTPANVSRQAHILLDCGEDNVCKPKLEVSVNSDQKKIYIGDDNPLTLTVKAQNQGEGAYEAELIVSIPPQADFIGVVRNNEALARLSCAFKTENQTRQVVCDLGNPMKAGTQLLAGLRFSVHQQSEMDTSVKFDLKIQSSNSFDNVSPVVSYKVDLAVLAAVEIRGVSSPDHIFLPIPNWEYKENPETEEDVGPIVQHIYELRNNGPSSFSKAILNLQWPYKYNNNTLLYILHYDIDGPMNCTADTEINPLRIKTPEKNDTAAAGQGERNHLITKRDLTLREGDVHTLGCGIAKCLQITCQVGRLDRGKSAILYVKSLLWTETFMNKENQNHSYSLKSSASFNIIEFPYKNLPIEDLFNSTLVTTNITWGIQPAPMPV
T2 sequence (Q0VBD0 43-681 limits assumed, chain 2 of 2): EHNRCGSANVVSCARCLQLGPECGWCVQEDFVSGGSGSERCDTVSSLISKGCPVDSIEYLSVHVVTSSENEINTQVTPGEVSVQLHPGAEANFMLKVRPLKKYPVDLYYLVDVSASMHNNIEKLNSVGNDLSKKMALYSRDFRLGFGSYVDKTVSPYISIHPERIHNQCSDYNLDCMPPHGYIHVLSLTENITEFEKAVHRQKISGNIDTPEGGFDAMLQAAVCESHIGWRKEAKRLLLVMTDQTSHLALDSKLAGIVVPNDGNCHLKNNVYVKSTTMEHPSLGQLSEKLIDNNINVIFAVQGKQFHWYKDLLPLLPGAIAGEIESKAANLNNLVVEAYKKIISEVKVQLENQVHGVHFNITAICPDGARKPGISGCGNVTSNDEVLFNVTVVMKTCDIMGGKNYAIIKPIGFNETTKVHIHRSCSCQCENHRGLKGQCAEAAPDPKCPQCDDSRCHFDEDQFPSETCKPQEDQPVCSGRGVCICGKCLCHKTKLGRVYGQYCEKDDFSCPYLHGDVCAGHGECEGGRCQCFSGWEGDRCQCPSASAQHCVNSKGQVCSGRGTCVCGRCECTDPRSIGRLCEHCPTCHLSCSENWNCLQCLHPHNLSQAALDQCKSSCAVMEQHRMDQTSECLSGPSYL
Experimental: as §1

cyno.aVb8.13650 = molecular target: T3, cyno.aVb8.13650 (cynomolgus, UniProt A0A2K5WCD3 31-992; G7P0S0 43-684); experiment: as above
T3 construct: Carries another lot/construct number than cyno.aVb8-19393; kept apart; also called cynomolgus αvβ8
Experimental: as §1

[8] = molecular target: T1, recombinant human αvβ8 protein …; experiment: SPR, Biacore kinetic screen at 37 °C, 1:1 binding fit; antibody as ligand, hu.aVb8-17102 as sample; in the presence of divalent cations according to
[9] = molecular target: T1, recombinant human αvβ8 protein …; experiment: SPR, Biacore kinetic screen at 37 °C, 1:1 binding fit flagged with a warning sign; antibody as ligand, hu.aVb8-17102 as sample; in the presence of divalent cations according to

- IC50 (nM), experiment #1: LN-229 + 3T3-Nano-human GARP/LTGFβ1 (WT) co-culture, NanoLuc reporter [1]: 0.95 nM
- IC50 (nM), experiment #2: LN-229 + 3T3-Nano-human GARP/LTGFβ1 (WT) co-culture, NanoLuc reporter [1]: 1.51 nM
- IC50 (nM), experiment #3: LN-229 + 3T3-Nano-human GARP/LTGFβ1 (non-releasable, NR) co-culture, NanoLuc reporter [1]: 0.34 nM
- IC50 (nM), experiment #4: LN-229 + 3T3-Nano-human GARP/LTGFβ3 (WT) co-culture, NanoLuc reporter [1]: 0.79 nM
- Kd [2]: 0.451 nM
- koff [2]: 5.33e-05 s⁻¹
- kon [2]: 118000 M⁻¹ s⁻¹
Molecule: ADWA11 mIgG2a.LALAPG (antibody)

- IC50 (nM), experiment #1: LN-229 + 3T3-Nano-human GARP/LTGFβ1 (WT) co-culture, NanoLuc reporter [1]: > 333 nM
- IC50 (nM), experiment #2: LN-229 + 3T3-Nano-human GARP/LTGFβ1 (WT) co-culture, NanoLuc reporter [1]: > 333 nM
- IC50 (nM), experiment #3: LN-229 + 3T3-Nano-human GARP/LTGFβ1 (non-releasable, NR) co-culture, NanoLuc reporter [1]: > 333 nM
- IC50 (nM), experiment #4: LN-229 + 3T3-Nano-human GARP/LTGFβ3 (WT) co-culture, NanoLuc reporter [1]: > 333 nM
Molecule: Isotype control (antibody)

- IC50 of the TGFb1 reporter signal, co-culture of LN-229 cells with 3T3-Nano GARP/LTGFb1 reporter cells [3]: 2.11 nM
- IC50 (nM), experiment #1: LN-229 + 3T3-Nano-human GARP/LTGFβ1 (WT) co-culture, NanoLuc reporter [1]: 0.63 nM
- IC50 (nM), experiment #2: LN-229 + 3T3-Nano-human GARP/LTGFβ1 (WT) co-culture, NanoLuc reporter [1]: 1.45 nM
- IC50 (nM), experiment #3: LN-229 + 3T3-Nano-human GARP/LTGFβ1 (non-releasable, NR) co-culture, NanoLuc reporter [1]: 0.24 nM
- IC50 (nM), experiment #4: LN-229 + 3T3-Nano-human GARP/LTGFβ3 (WT) co-culture, NanoLuc reporter [1]: 0.78 nM
- Kd [2]: 1.06 nM
- koff [2]: 9.3e-05 s⁻¹
- kon [2]: 87800 M⁻¹ s⁻¹
- Kd [4]: 3.8 nM
- koff [4]: 0.000266 s⁻¹
- kon [4]: 69900 M⁻¹ s⁻¹
Molecule: C6D4 mIgG2a.LALAPG (antibody)

- Kd [2]: < 0.0258 nM
- kon [2]: 258000 M⁻¹ s⁻¹
- koff [5]: < 1e-05 s⁻¹
B1: αvβ8-65 in the murine Fc format (antibody, V domains shown)
VH: EVQLLESGGGLVQPGGSLRLSCAASGIDLSNYAMIWVRQAPGKGLEWVGIISSSDRIWYASWVKGRFTISRDNSKNTLYLQMNSLRAEDTAVYYCSRSVSNSYFDGWNLWGQGTLVTVSS
VL: DIQMTQSPSSVSASVGDRVTITCQASENINSLLAWYQQKPGKAPKLLIYRASTLASGVPSRFSGSGSGTDFTLTISSLQPEDFATYYCQSNYGFTGSGAFFYGFGQGTKVEIK

- Kd [6]: 0.7 nM
- koff [6]: 0.000131 s⁻¹
- kon [6]: 187000 M⁻¹ s⁻¹
- Kd [7]: 0.9 nM
- koff [7]: 0.000132 s⁻¹
- kon [7]: 146000 M⁻¹ s⁻¹
- Kd (cyno.aVb8.13650): 1.94 nM
- koff (cyno.aVb8.13650): 0.000121 s⁻¹
- kon (cyno.aVb8.13650): 62400 M⁻¹ s⁻¹
- Kd [8]: 1.54 nM
- koff [8]: 0.000349 s⁻¹
- kon [8]: 227000 M⁻¹ s⁻¹
B2: Rb.aVb8-65 (antibody, V domains shown)
VH: QSVEESGGRLVTPGTPLTLTCTVSGIDLSNYAMIWVRQAPGKGLEWIGIISSSDRIWYASWVKGRFTISKTSSTTVDLQMTSLTTEDTATYFCSRSVSNSYFDGWNLWGPGTLVTVSS
VL: DIVMTQTPASVEAAVGGTVTIKCQASENINSLLAWYQQKPGQPPKLLIYRASTLASGVPSRFRGSGSGTQFTLTISDLECDDAATYYCQSNYGFTGSGAFFYGFGGGTEVVVE
notes: Recombinant rabbit monoclonal antibody expressed in Expi293 cells; also called rb.αvβ8-65; rabbit αvβ8-65

- Kd [6]: 1.6 nM
- koff [6]: 0.000164 s⁻¹
- kon [6]: 102000 M⁻¹ s⁻¹
- Kd [7]: 1.86 nM
- koff [7]: 0.000184 s⁻¹
- kon [7]: 98600 M⁻¹ s⁻¹
- Kd (cyno.aVb8.13650): 6.91 nM
- koff (cyno.aVb8.13650): 0.000293 s⁻¹
- kon (cyno.aVb8.13650): 42400 M⁻¹ s⁻¹
- Kd [9]: 671 nM
- koff [9]: 0.000777 s⁻¹
- kon [9]: 1160 M⁻¹ s⁻¹
B3: Rb.aVb8-92 (antibody, V domains shown)
VH: QSVEESGGRLVTPGTPLTLTCTVSGFSLSSYAMGWVRQAPGKGLEWIGVIRKDDNTYYGNWAKGRFTISRTSTTVDLKMTSLTAADTATYFCARALNTYVGFPYFNIWGPGTLVTVSS
VL: AAVLTQTPSPVSAAVGGTVSISCQSIKSVGDNKWLAWYQQKPGQPPKLLIYDASDLASGVPSRFKGSGSRTQFTLTISDLQCDDAATYYCAGSVSSGDSGFGGGTEVVVA
notes: Recombinant rabbit monoclonal antibody expressed in Expi293 cells; also called rb.αvβ8-92; rabbit αvβ8-92
